Measured values reported in article PMC11746154 (2023).

B1: Gal4AD-Rec104 [S. cerevisiae] / LexA-Rec102 [S. cerevisiae] (parent complex)
chain 1: MSIEEEDTNKITCTQDFLHQYFVTERVSIQFGLNNKTVKRINKDEFDKAVNCIMSWTNYPKPGLKRTASTYLLSNSFKKSATVSLPFILGDPVCMPKRVESNNNDTCLLYSDTLYDDPLIQRNDQAGDEIEDEFSFTLLRSEVNEIRPISSSSTAQILQSDYSALMYERQASNGSIFQFSSP
chain 2: MARDITFLTVFLESCGAVNNDEAGKLLSAWTSTVRIEGPESTDSNSLYIPLLPPGMLKIKLNFKMNDRLVTEEQELFTKLREIVGSSIRFWEEQLFYQVQDVSTIENHVILSLKCTILTDAQISTFISKPRELHTHAKGYPEIYYLSELSTTVNFFSKEGNYVEISQVIPHFNEYFSSLIVSQLEFEYPMVFSMISRLRLKWQQSSLAPISYALTSNSVLLPIMLNMIAQDKSSTTAYQILCRRRGPPIQNFQIFSLPAVTYNK

Variants of: B1
Assay: Y2H β-galactosidase assay; parent: 0.97; read off a plot

Variant	response
chain 2 F11A	~0.9 normalized β-gal units
chain 2 L179A	~0.1 normalized β-gal units
chain 2 L8A	~1.4 normalized β-gal units
chain 2 V10A	~0.6 normalized β-gal units
chain 2 S182A	~0.62 normalized β-gal units
chain 2 F156A	~1.5 normalized β-gal units
chain 2 Q183A	~0.01 normalized β-gal units

Variants of: B1
Assay: as above
Remark: another data set of the same source

Variant	response
chain 1 I11A	~0.93 normalized β-gal units
chain 1 T12A	~0.75 normalized β-gal units
chain 1 Y21A	~1.1 normalized β-gal units
chain 1 L18A	~0.75 normalized β-gal units
chain 1 F17A	~0.8 normalized β-gal units
chain 1 V50A	~1.2 normalized β-gal units
chain 1 L33A	~0.87 normalized β-gal units
chain 1 F31A	~1.6 normalized β-gal units
chain 1 K10A	~0.83 normalized β-gal units
chain 1 I53A	~1.1 normalized β-gal units
